Test results from patent publication US20070197446A1, “MHC binding peptides and their uses” (ProImmune Limited, priority 2006, published 2007).

What follows are binders tested against HLA-B*3501 (assay: MHC-peptide assembly over 24 h, ELISA with conformational antibody; reading minus pass/fail control).
HPVGEADYFEY (modifications not checked) [… (SEQ ID NO: 8)] gave an ELISA (Absorption-Pass/Fail Control) of 0.55 absorption.

What follows are binders tested against HLA-B*0702 (assay: not given).
In the case of LVKSDQICI (modifications not checked) [… (SEQ ID NO: 29)], the ELISA (Absorption-Pass/Fail Control) is reported as -0.06 absorption. In the case of TIMEKNVTV (modifications not checked) [… (SEQ ID NO: 18)], the ELISA (Absorption-Pass/Fail Control) is reported as 0 absorption. ILRDCSVAG (modifications not checked) [… (SEQ ID NO: 30)] gave an ELISA (Absorption-Pass/Fail Control) of 0.03 absorption.

Each binder was assayed against HLA-B*0801 (assay: not given).
In the case of KPLILRDCS (modifications not checked) [… (SEQ ID NO: 35)], the ELISA (Absorption-Pass/Fail Control) is reported as 0.1 absorption. ILEKKHNGK (modifications not checked) [… (SEQ ID NO: 28)] gave an ELISA (Absorption-Pass/Fail Control) of 0.95 absorption. Work on VTHAQDILE (modifications not checked) [… (SEQ ID NO: 33)] yielded an ELISA (Absorption-Pass/Fail Control) of 0.31 absorption. Binder DILEKKHNG (modifications not checked) [… (SEQ ID NO: 34)] has an ELISA (Absorption-Pass/Fail Control) of 0.53 absorption. Binder TIMEKNVTV (modifications not checked) [… (SEQ ID NO: 18)] has an ELISA (Absorption-Pass/Fail Control) of 0.8 absorption. PLILRDCSV (modifications not checked) [… (SEQ ID NO: 36)] showed an ELISA (Absorption-Pass/Fail Control) of 0.65 absorption. In the case of WLLGNPMCD (modifications not checked) [… (SEQ ID NO: 38)], the ELISA (Absorption-Pass/Fail Control) is reported as 0.03 absorption. In the case of GNPMCDEFI (modifications not checked) [… (SEQ ID NO: 39)], the ELISA (Absorption-Pass/Fail Control) is reported as 0.04 absorption. With VSLVKSDQI (modifications not checked) [… (SEQ ID NO: 31)] the ELISA (Absorption-Pass/Fail Control) was 0.36 absorption. DTIMEKNVT (modifications not checked) [… (SEQ ID NO: 32)] was tested, and the ELISA (Absorption-Pass/Fail Control) was 0.08 absorption. Binder LILRDCSVA (modifications not checked) [… (SEQ ID NO: 23)] has an ELISA (Absorption-Pass/Fail Control) of 0.07 absorption. NVTVTHAQD (modifications not checked) [… (SEQ ID NO: 27)] was tested, and the ELISA (Absorption-Pass/Fail Control) was 0.08 absorption. Work on VAGWLLGNP (modifications not checked) [… (SEQ ID NO: 37)] yielded an ELISA (Absorption-Pass/Fail Control) of 0.04 absorption.

The binders below were run against HLA-B*3501 (assay: not given).
AGWLLGNPM (modifications not checked) [… (SEQ ID NO: 42)] gave an ELISA (Absorption-Pass/Fail Control) of -0.06 absorption. For LVKSDQICI (modifications not checked) [… (SEQ ID NO: 29)], the ELISA (Absorption-Pass/Fail Control) was 0.04 absorption. With LFAIVSLVK (modifications not checked) [… (SEQ ID NO: 40)] the ELISA (Absorption-Pass/Fail Control) was 0.1 absorption. Binder HANNSTEQV (modifications not checked) [… (SEQ ID NO: 17)] has an ELISA (Absorption-Pass/Fail Control) of 0.43 absorption. Work on LGNPMCDEF (modifications not checked) [… (SEQ ID NO: 43)] yielded an ELISA (Absorption-Pass/Fail Control) of 0.35 absorption. In the case of FINVPEWSY (modifications not checked) [… (SEQ ID NO: 10)], the ELISA (Absorption-Pass/Fail Control) is reported as 0.57 absorption. For SLVKSDQIC (modifications not checked) [… (SEQ ID NO: 16)], the ELISA (Absorption-Pass/Fail Control) was -0.03 absorption.

What follows are binders tested against HLA-A*0201 (assay: not given).
With AIVSLVKSD (modifications not checked) [… (SEQ ID NO: 14)] the ELISA (Absorption-Pass/Fail Control) was 0.43 absorption. Work on NVPEWSYIV (modifications not checked) [… (SEQ ID NO: 25)] yielded an ELISA (Absorption-Pass/Fail Control) of 1.03 absorption. LLFAIVSLV (modifications not checked) [… (SEQ ID NO: 12)] showed an ELISA (Absorption-Pass/Fail Control) of 1.06 absorption. Binder HANNSTEQV (modifications not checked) [… (SEQ ID NO: 17)] has an ELISA (Absorption-Pass/Fail Control) of 0.43 absorption. Work on IMEKNVTVT (modifications not checked) [… (SEQ ID NO: 19)] yielded an ELISA (Absorption-Pass/Fail Control) of 0.02 absorption. AQDILEKKH (modifications not checked) [… (SEQ ID NO: 21)] gave an ELISA (Absorption-Pass/Fail Control) of 0.15 absorption. Work on TIMEKNVTV (modifications not checked) [… (SEQ ID NO: 18)] yielded an ELISA (Absorption-Pass/Fail Control) of 0.99 absorption. KLCDLDGVK (modifications not checked) [… (SEQ ID NO: 22)] was tested, and the ELISA (Absorption-Pass/Fail Control) was 0.2 absorption. Work on PMCDEFINV (modifications not checked) [… (SEQ ID NO: 24)] yielded an ELISA (Absorption-Pass/Fail Control) of 0.98 absorption. FAIVSLVKS (modifications not checked) [… (SEQ ID NO: 13)] was tested, and the ELISA (Absorption-Pass/Fail Control) was 0.07 absorption. IVSLVKSDQ (modifications not checked) [… (SEQ ID NO: 15)] was tested, and the ELISA (Absorption-Pass/Fail Control) was 0.04 absorption. Binder MEKNVTVTH (modifications not checked) [… (SEQ ID NO: 20)] has an ELISA (Absorption-Pass/Fail Control) of -0.02 absorption. LILRDCSVA (modifications not checked) [… (SEQ ID NO: 23)] showed an ELISA (Absorption-Pass/Fail Control) of 0.57 absorption. VLLFAIVSL (modifications not checked) [… (SEQ ID NO: 11)] showed an ELISA (Absorption-Pass/Fail Control) of 0.47 absorption. SLVKSDQIC (modifications not checked) [… (SEQ ID NO: 16)] showed an ELISA (Absorption-Pass/Fail Control) of 0.09 absorption.

What follows are binders tested against HLA-A*0301 (assay: not given).
With ILEKKHNGK (modifications not checked) [… (SEQ ID NO: 28)] the ELISA (Absorption-Pass/Fail Control) was -0.01 absorption. For KLCDLDGVK (modifications not checked) [… (SEQ ID NO: 22)], the ELISA (Absorption-Pass/Fail Control) was 1.16 absorption. KSDQICIGY (modifications not checked) [… (SEQ ID NO: 9)] showed an ELISA (Absorption-Pass/Fail Control) of 0.05 absorption. NVTVTHAQD (modifications not checked) [… (SEQ ID NO: 27)] gave an ELISA (Absorption-Pass/Fail Control) of -0.04 absorption.

Each binder was assayed against HLA-A*0101 (assay: not given).
For KSDQICIGY (modifications not checked) [… (SEQ ID NO: 9)], the ELISA (Absorption-Pass/Fail Control) was 0.47 absorption. Binder FINVPEWSY (modifications not checked) [… (SEQ ID NO: 10)] has an ELISA (Absorption-Pass/Fail Control) of 0.16 absorption.
